We go through one molecule from US20180016348A1.

Holding throughout (assay): cell-based or functional assay
Test [1] concerns the target neuraminidase (NA) of H1N1 A/Brisbane/59/2007 (influenza A virus H1N1 A/Brisbane/59/2007).
For test [2], the target named is neuraminidase (NA) of H1N1 A/California/07/2009 (influenza A virus H1N1 A/California/07/2009).
Test [3] concerns the target neuraminidase (NA) of H5N1 A/Vietnam/1194/2004 (NIBRG-14) (influenza A virus H5N1 A/Vietnam/1194/2004 (NIBRG-14)).
Test [4] deals with neuraminidase (NA) of H3N2 A/Perth/16/2009 (influenza A virus H3N2 A/Perth/16/2009).

B1: CR12042 (antibody, V domains shown)
VH: EVQLVESGAEVRKPGSSVKVSCTASGDTFSSYTITWVRQAPGQGLEWMGEIIPIFGTANYAQKFQGRVTLTADESTTTAYMDLSSLRSEDTAVYYCARGPDNHSDRYFYYGMDVWGQGTTVTVSS
VL: EIVLTQSPLSLPVTPGEPASISCRSSQSLLHSTGNNYLDWYLQKPGQSPQLLIYLGSNRASGVPDRFSGSGSGTDFTLKISRVEAEDVGVYYCMQALQTPRTFGQGTKVDIK
With B1, the EC50 of neuraminidase inhibition (NA-XTD assay, whole virus) in test [1] turned out to be 0.11 µg/mL; in test [4], 5.01 µg/mL. The IC50 of virus neutralization (VNA on MDCK cells) in test [2] came out at 0.26 µg/mL; in test [3] it was 5.45 µg/mL. The same molecule displayed an IC50 of virus neutralization (VNA on MDCK cells; one experiment) in test [4] above 100 µg/mL.
